The target in this assay is T1, CD73-Myc-His (a fusion protein of the CD73 mature protein extracellular domain and Myc tag and His tag) (human, UniProt P21589 27-547, biotinylated with a kit (sites not given)).
T1 construct: Captured on streptavidin-coated plates in the ELISA; also called biotinylated CD73-myc-his fusion protein; human CD73 protein
T1 sequence: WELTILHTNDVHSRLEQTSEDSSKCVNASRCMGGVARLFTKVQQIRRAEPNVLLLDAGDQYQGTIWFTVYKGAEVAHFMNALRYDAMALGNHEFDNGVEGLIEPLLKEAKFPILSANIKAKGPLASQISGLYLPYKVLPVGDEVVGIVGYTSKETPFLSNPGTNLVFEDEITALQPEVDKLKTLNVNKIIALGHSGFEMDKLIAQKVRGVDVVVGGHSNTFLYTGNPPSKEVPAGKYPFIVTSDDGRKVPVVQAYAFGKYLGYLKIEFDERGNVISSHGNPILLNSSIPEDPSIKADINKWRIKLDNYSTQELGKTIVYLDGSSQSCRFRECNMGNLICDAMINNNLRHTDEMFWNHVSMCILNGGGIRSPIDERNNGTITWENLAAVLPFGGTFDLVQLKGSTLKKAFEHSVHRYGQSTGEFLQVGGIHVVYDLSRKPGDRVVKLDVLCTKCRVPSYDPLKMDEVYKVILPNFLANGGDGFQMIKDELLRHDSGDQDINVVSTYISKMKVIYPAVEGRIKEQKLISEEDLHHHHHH
Kind of assay: ELISA; biotinylated CD73-myc-his captured on streptavidin plate. On the procedure:
The binding of anti-CD73 antibodies to human CD73 protein was tested by ELISA assay. The biotinylated CD73 fusion protein was immobilized onto a 96-well microtiter plate by binding to the Streptavidin coated on the microtiter plate. The signal strength after the addition of the antibody was used to determine the binding activity of the antibody to CD73. The specific experimental procedures were as follows:
Streptavidin (Sigma, Cat No. S4762-5MG) was diluted with PBS, pH7.4 (Shanghai BasalMedia, Cat No. B320) buffer to a concentration of […], was added into the 96-well microtiter plate (Corning, Cat No. CLS3590-100EA), 50 μl/well, and incubated in an incubator at 37° C. for 2 hours. The liquid was discarded, 250 μl/well blocking solution (5% skim milk (BD skim milk, Cat No. 232100) diluted in PBS) was added, and incubated in an incubator at 37° C. for 3 hours or at 4° C. overnight (16-18 hours) for blocking. After blocking, the blocking solution was discarded; the plate was washed for 5 times with PBST buffer (PBS containing 0.05% tween-20, pH7.4), 50 μl/well of biotinylated CD73-myc-his fusion protein (Tojin Chemical, Cat No. LK03, biotinylation method was according to the kit's instruction) diluted with sample diluent (PBS containing 1% BSA, pH7.4) was added, and incubated in an incubator at 37° C. 1 hour or at 4° C. overnight. After the incubation was finished, the reaction solution was removed from the microtiter plate, the plate was washed for 5 times with PBST, 50 μl/well of various concentrations of each of the test antibodies (purified hybridoma antibodies or humanized antibodies, diluted with sample diluent) were added, and incubated in an incubator at 37° C. for 1 hour. After the incubation was finished, the plate was washed for 5 times with PBST, 50 µl/well of HRP-labeled goat anti-mouse secondary antibody (Jackson Immuno Research, Cat No. 115-035-003) or goat anti-human secondary antibody (Jackson Immuno Research, Cat No. 109-035-003) diluted with sample diluent was added, and incubated at 37° C. for 1 hour. The plate was washed for 5 times with PBST, 50 μl/well of TMB chromogenic substrate (KPL, Cat No. 52-00-03) was added, incubated at room temperature for 5-10 min, and 50 μl/well of 1M H₂SO₄ was added to stop the reaction.

As a reminder, the EC50 is the midpoint of the concentration-response curve. The low end stands for greater potency, the high end for weaker potency.

B1: CPX006 (antibody CPX-006 disclosed in patent application WO2018013611) (antibody, V domains shown)
VH: QVQLVQSGAEVEKPGASVKVSCKASGYTFTSYWITWVRQAPGQGLEWMGDIYPGSGNTNYNEKFKTRVTITADKSTSTAYMELSSLRSEDTAVYYCAKEGGLTTEDYALDYWGQGTLVTVSS
VL: EIVLTQSPATLSLSPGERATLSCRASKNVSTSGYSYMHWYQQKPGQAPRLLIYLASNLESGIPPRFSGSGYGTDFTLTINNIESEDAAYYFCQHSRELPFTFGQGTKVEIKR
For B1, the EC50 amounted to 0.088 nM.

B2: Hab108.64 (antibody, human IgG1, kappa, V domains shown)
VH: EVTLKQSGPGLVKPTETLTLTCTVSGFSLSSYGIQWVRQPPGKGLEWLGVIWSGGSADYNAAFISRLTISKDTSKSQVVLTMTNMDPVDTATYYCAGQYGSVWGQGTLVTVSS
VL: DIQMTQSPSSLSASVGDRVTITCRASQDIGDRLNWLQQKPGGAIKRLIYATSSLDSGVPKRFSGSGSGTEYTLTISSLQPEDFATYYCLQYAGSWTFGGGTKVEIKR
notes: also called humanized antibody of mab108
The molecule B2 registered an EC50 of 0.047 nM.

B3: Hab110.21 (antibody, human IgG1, kappa, V domains shown)
VH: EVQLVQSGAEVKKPGASVKVSCKASGYTFTSYTMHWVRQAPGQRLEWMGYINPNSFYIEYNQKFKDRVTITRDTSASTAYMELSSLRSEDTAVYYCARGDYDLFYDMDNWGQGTTVTVSS
VL: DIQMTQSPSSLSASVGDRVTITCRASQDIGNSLNWLQQKPGKAIKRLIYATFRLDSGVPSRFSGSRSGTEYTLTISSLQPEDFATYYCQQYASFPWTFGGGTKVEIKR
notes: also called humanized antibody of mab110
Turning to B3, the EC50 is 0.026 nM.

B4: Hab127.31d (antibody, human IgG1, kappa, V domains shown)
VH: EVQLVQSGAEVKKPGASVKVSCKASGYTFTAYFMNWVRQAPGQGLEWMGRIYHNKGDTFYSQKFKGRVTMTVDKSTSTVYMELSSLRSEDTAVYYCATSYVGDWGQGTTVTVSS
VL: DIQMTQSPSSLSASVGDRVTITCRASQDIGDSLNWLQQKPGGALKRLIYATSSLDSGVPSRFSGSGSGTEYTLTISSLQPEDFATYYCLQYASFPWTFGGGTKVEIKR
notes: also called humanized antibody of mab127
The molecule B4 showed an EC50 of 0.026 nM.

Source of the values: patent US20220220218A1 (JIANGSU HENGRUI MEDICINE, published 2022).
